The results in this text go back to patent publication US20240158515A1 (Regeneron, published 2024).

In assay [1] the target is full length human FGFR3b S249C on BaF3 cells (BAF3/FGFR3b_S249C, ACL11986) (human, UniProt P22607 23-808). Briefly: cell-based or functional assay.
Assay [2] has as its target full length human FGFR3b S249C/V557M on BaF3 cells (human, UniProt P22607 23-808). Briefly: cell-based or functional assay.
Assay [3] deals with full length human FGFR3b S249C/V557L on BaF3 cells (human, UniProt P22607 23-808). Briefly: cell-based or functional assay.
Assay [4] addresses T1, human FGFR3b expressed with a C-terminal myc-myc-hexahistidine tag (hFGFR3b.mmH) (human).
T1 construct: also called REGN3152; monomeric human FGFR3b
T1 chain: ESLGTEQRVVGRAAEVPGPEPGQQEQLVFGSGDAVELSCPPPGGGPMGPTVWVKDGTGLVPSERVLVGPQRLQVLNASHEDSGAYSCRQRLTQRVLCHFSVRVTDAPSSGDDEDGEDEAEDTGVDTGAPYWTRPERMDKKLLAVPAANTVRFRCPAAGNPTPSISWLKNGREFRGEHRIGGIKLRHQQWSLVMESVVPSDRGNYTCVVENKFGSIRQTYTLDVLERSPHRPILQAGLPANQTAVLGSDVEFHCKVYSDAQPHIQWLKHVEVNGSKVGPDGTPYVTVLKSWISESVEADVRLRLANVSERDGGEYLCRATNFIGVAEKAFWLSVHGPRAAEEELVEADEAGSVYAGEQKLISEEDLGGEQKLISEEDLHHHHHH
Briefly: SPR Biacore, mAb captured on anti-hFc, 25C. Background: Surface plasmon resonance follows binding to a sensor surface in real time, without labels.

In assay [5] the target is T2, cynomolgus FGFR3b expressed with a C-terminal myc-myc-hexahistidine tag (mfFGFR3b.mmH) (cynomolgus).
T2 construct: also called REGN3521; mf FGFR3b ecto (R357G)(E23-G377;R357G).mmH
T2 chain: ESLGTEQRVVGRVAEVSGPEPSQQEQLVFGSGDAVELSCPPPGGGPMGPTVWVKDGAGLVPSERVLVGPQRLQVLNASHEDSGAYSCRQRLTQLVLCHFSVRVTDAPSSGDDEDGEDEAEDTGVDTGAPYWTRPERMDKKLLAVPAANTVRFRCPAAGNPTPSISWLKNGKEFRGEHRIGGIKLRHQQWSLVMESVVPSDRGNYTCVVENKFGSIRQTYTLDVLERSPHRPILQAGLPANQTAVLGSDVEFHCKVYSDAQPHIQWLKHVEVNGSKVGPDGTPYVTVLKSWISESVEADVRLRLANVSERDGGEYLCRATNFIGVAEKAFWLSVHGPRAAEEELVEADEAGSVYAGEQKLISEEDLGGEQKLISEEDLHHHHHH
Briefly: SPR Biacore, mAb captured on anti-hFc, 25C.

Assay [6] concerns the target T3, murine FGFR3b expressed with a C-terminal myc-myc-hexahistidine tag (mFGFR3b.mmH) (murine).
T3 construct: also called REGN3215; monomeric murine FGFR3b
T3 chain: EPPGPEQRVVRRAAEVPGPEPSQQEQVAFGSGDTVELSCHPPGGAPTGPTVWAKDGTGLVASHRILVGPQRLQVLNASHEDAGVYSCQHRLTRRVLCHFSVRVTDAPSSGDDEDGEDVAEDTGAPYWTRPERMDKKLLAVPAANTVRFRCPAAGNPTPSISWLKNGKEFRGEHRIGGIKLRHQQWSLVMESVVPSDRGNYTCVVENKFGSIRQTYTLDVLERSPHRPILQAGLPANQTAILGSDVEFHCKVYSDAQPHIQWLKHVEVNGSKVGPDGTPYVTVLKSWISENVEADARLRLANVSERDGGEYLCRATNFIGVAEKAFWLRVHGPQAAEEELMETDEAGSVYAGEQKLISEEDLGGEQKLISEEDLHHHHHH
Briefly: SPR Biacore, mAb captured on anti-hFc, 25C.

The target of assay [7] is T4, human FGFR3c expressed with a C-terminal myc-myc-hexahistidine tag (hFGFR3c.mmH) (human, UniProt P22607 23-375).
T4 construct: also called REGN3155; monomeric human FGFR3c
Briefly: SPR Biacore, mAb captured on anti-hFc, 25C; row marked NB.

B1: H4H30063P (antibody, human IgG4 S228P, kappa, V domains shown)
VH: QVQLQESGPGLVKPSETLSLTCTVSGDSINSYFWSWIRQLPGKELEWIGHIYSSGSTRYNPSLQSRVTISIDTSKNQFSLKLSSVTAADTAVYYCARGASAVDYWGQGTLVTVSS
VL: EIVLTQSPGTLSLSPGERATLSCRTSQSISSGYLAWYQQKPGQAPRLLIYGASRRATGIPDRFSGSGSGTDFTLTISRLEPEDFVVYYCQQYGSSPYTFGQGTKLEIKR
notes: HCVR 2, LCVR 10; also called REGN15684
With B1, the “IC50, growth of BaF3 cells expressing FGFR3 S249C (CellTiter-Glo)” value in assay [1] amounted to 1.36 nM. Besides, the “IC50, growth of BaF3 cells expressing FGFR3 S249C/V557M (CellTiter-Glo)” value in assay [2] worked out at 3.9 nM. Also, the “IC50, growth of BaF3 cells expressing FGFR3 S249C/V557L (CellTiter-Glo)” value in assay [3] was 4.3 nM. Further, in assay [4], the “90 nM hFGFR3b.mmH Bind (RU)” value is 240 RU, the Kd came out at 0.222 nM, the koff is 3.83e-05 s⁻¹ and the kon stood at 172000 M⁻¹ s⁻¹. In addition, the “t½” value in assay [4] was 5.03 h. Further, in assay [5], the “90 nM mfFGFR3b.mmH Bind (RU)” value was 212 RU; the affinity, expressed as Kd, was 0.275 nM; the koff was 4.21e-05 s⁻¹; the kon was 153000 M⁻¹ s⁻¹. Besides, the “t½” value in assay [5] stood at 4.58 h. Further, in assay [6], the “90 nM mFGFR3b.mmH Bind (RU)” value amounted to 259 RU, the dissociation constant (Kd) stood at 0.137 nM, the koff came to 2.78e-05 s⁻¹ and the kon is 204000 M⁻¹ s⁻¹. In addition, the “t½” value in assay [6] is 6.92 h. For the same molecule, the “90 nM hFGFR3c.mmH Bind (RU)” value in assay [7] is -19.6 RU.

As usually defined, the Kd is the constant that tells how readily two partners part at equilibrium. Read a high Kd as a looser complex. As usually defined, the koff is a measure of how fast the partners let go of each other. As usually defined, the kon is a measure of how fast the partners come together. A high value points to fast association. By t½ is commonly meant how long it takes for the measured level to halve. Read a high t½ as slow decline.
